Experimental data as given in patent US20190040130A1 (Alector, published 2019).
Substitutions are numbered along the chain they refer to.

Tests used:
[1] = biological target: T1, human TREM2 expressed on cells (human, UniProt Q9NZC2 19-230); assay: FACS, BW cells
T1 construct: also called huT2 BW; cell expressed TREM2
T1 sequence: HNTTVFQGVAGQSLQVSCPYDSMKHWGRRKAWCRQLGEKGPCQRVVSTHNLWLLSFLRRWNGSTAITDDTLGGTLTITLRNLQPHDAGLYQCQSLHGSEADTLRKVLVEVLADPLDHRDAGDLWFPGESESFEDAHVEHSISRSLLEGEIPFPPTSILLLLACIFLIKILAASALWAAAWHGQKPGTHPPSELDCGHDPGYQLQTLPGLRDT
Description: To examine cell binding of anti-TREM2 antibodies, recombinant, human TREM2-expressing BW5147. G.1.4 cells (ATCC® TIB48™) were established by stably expressing either mouse TREM2 or human TREM2 together with Dap12 using viral infection. Cells were harvested by scraping, washed in PBS, counted and plated on 96-well U bottom plates at 1×10⁵ cells/well. The plates were spun at 1,400 rpm for 3 minutes and primary anti-TREM2 or control antibodies were added in FACS buffer (PBS+2% FBS) and incubated on ice for one hour. Cells were subsequently centrifuged as before and washed thrice with FACS buffer. Cells were then incubated with anti-human PE conjugated secondary antibody (BD Biosciences) in FACS buffer for 30 minutes on ice. Cells were again washed thrice with FACS buffer and analyzed on a BD FACS Canto. Binding was measured as mean fluorescence intensity in the […].

[2] = biological target: T2, human TREM2/DAP12 fusion protein in BW5147.G.1.4 NFAT-luciferase reporter cells (human, UniProt O43914 41-113, limits assumed); assay: cell-based or functional assay
[3] = biological target: T2, human TREM2/DAP12 fusion protein in …; assay: cell-based or functional assay; remark: listed apart in the source
[4] = biological target: T2, human TREM2/DAP12 fusion protein in …; assay: cell-based or functional assay; remark: listed apart in the source
[5] = biological target: T2, human TREM2/DAP12 fusion protein in …; assay: cell-based or functional assay; remark: listed apart in the source
[6] = biological target: T2, human TREM2/DAP12 fusion protein in …; assay: cell-based or functional assay; remark: listed apart in the source
[7] = biological target: T2, human TREM2/DAP12 fusion protein in …; assay: cell-based or functional assay; remark: listed apart in the source

B1: AL2p (parental mouse anti-TREM2 antibody) (antibody, human IgG1, V domains shown)
VH: QVQLQQSGPELVKPGASLKISCKASGYAFSSSWMNWVKQRPGKGLEWIGRIYPGDGDTNYNGEFRVRATLTADTSSTTAYMQLSSLTSEDSAVYFCARLLRNQPGESYAMDYWGQGASVTVSS
VL: DVVMTQTPLSLPVSLGDQASISCRSSQSLVHSNGYTYLHWYLQKPGQSPKLLIYKVSNRFSGVPDRFSGSGSGTDFTLKISRVEADDLGVYFCSQSTRVPYTFGGGTKLEIK
notes: Mouse variable regions; tested as Fab, as human-mouse chimera (human IgG1 Fc) and as msIgG1; see assay; also called 9F5; 9F5a
Cell binding (FOB) [1]: 79 fold over background | EC50 (read off the curve); NFAT:luciferase luminescence, BWZ reporter cells, soluble antibody, 6 h [2]: ~2 µg/mL | EC50 (read off the curve); NFAT:luciferase luminescence, BWZ reporter cells co-cultured 1:1 with THP-1 cells, 6 h [3]: ~1 µg/mL

B2: AL2p-h76 (antibody, IgG1, V domains shown)
VH: QVQLVQSGAEVKKPGASVKVSCKASGYAFSSSWMNWVRQAPGQRLEWIGRIYPGDGDTNYAQKFQGRATITADTSASTAYMELSSLRSEDTAVYFCARLLRNQPGESYAMDYWGQGTLVTVSS
VL: DVVMTQSPDSLAVSLGERATINCRSSQSLVHSNGYTYLHWYQQKPGQSPKLLIYKVSNRFSGVPDRFSGSGSGTDFTLTISSLQAEDVAVYYCSQSTRVPYTFGGGTKVEIK
notes: IgG1; Fab in monovalent BLI
Cell binding (FOB) [1]: 86 fold over background | Soluble luciferase activation at 10 µg/ml [4]: 6.52 fold over control

B3: AL2p-31 msFc (antibody, V domains shown)
VH: B2 VH with A16S, S32Q, R44G, I48M, D55G, Q62R, A68V, T74E, A76T, F95Y
VL: GVVMTQTPLSLSVTPGQPASISCRSSQSLVHSNGYTYLHWYLQKPGQSPQLLIYKVSNRRSGVPDRFSGSGSGTDFTLKISRVEAEDVGVYYCSQSTRVPYTFGQGTKLEIK
EC50 (read off the curve); NFAT:luciferase luminescence, BWZ reporter cells, soluble IgG [5]: ~0.8 µg/mL | EC50 (read off the curve); NFAT:luciferase luminescence, BWZ reporter cells, plate bound IgG [6]: ~3 µg/mL

B4: AL2p-14 (antibody, IgG1, V domains shown)
VH: B2 VH with A16S, S32H, R44G, I48M, A68V, T74E, A76T, F95Y
VL: B3 VL with Q27R, R60F
Luciferase activation plate bound 33 nM IgG [7]: 22.1 FOC
